Measured values: article PMC1278935, “Different Catalytic Mechanisms in Mammalian Selenocysteine- and Cysteine-Containing Methionine-R-Sulfoxide Reductases” (PLoS Biology, 2005)
Changes are numbered by the printed parent chain. Names and notes keep the numbering of the source.

B1: MsrB1 (Sec-containing MsrB1; Cys form MsrB1-Cys) (Mus musculus) (protein)
chain: MSFCSFFGGEVFQNHFEPGVYVCAKCSYELFSSHSKYAHSSPWPAFTETIHPDSVTKCPEKNRPEALKVSCGKCGNGLGHEFLNDGPKRGQSRFUIFSSSLKFVPKGKEAAASQGH
notes: full length, monomer; Sec forms: natural SECIS element, C-terminal His tag (five His added to own C-terminal His), from NIH 3T3 cells; C-terminally tagged form of similar activity also made
B2: MsrB1 (Sec-containing MsrB1; Cys form MsrB1-Cys) (Mus musculus; G77H) (protein)
chain: B1 chain with G77H
notes: as for B1
B3: MsrB1 (Sec-containing MsrB1; Cys form MsrB1-Cys) (Mus musculus; U95C) (protein)
chain: B1 chain with U95C
notes: as for B1
B4: MsrB1 (Sec-containing MsrB1; Cys form MsrB1-Cys) (Mus musculus; F97N/G77H/U95C) (protein)
chain: B1 chain with G77H, U95C, F97N
notes: as for B1
B5: MsrB1 (Sec-containing MsrB1; Cys form MsrB1-Cys) (Mus musculus; F97N) (protein)
chain: B1 chain with F97N
notes: as for B1
B6: MsrB1 (Sec-containing MsrB1; Cys form MsrB1-Cys) (Mus musculus; F97N/G77H) (protein)
chain: B1 chain with G77H, F97N
notes: as for B1
B7: MsrB3 (Homo sapiens; H77G) (protein)
chain: SGSCRDKKNCKVVFSQQELRKRLTPLQYHVTQEKGTESAFEGEYTGHKDPGIYKCVVCGTPLFKSETKFDSGSGWPSFHDVINSEAITFTDDFSYGMHRVETSCSQCGAHLGHIFDDGPRPTGKRYCINSAALSFTPADSSGTAEGGSGVASPAQADKAEL
notes: MsrB3A delta(1-31), residues 32-192, endoplasmic reticulum signal removed, C-terminal His tag (LEHHHHHH), E. coli BL21(DE3), monomer
B8: MsrB3 (Homo sapiens; I113E) (protein)
chain: B7 chain with G46H, I82E
notes: as for B7
B9: MsrB3 (Homo sapiens) (protein)
chain: B7 chain with G46H
notes: as for B7
B10: MsrB3 (Homo sapiens; N160Y) (protein)
chain: B7 chain with G46H, N129Y
notes: as for B7

Legend:
[1] = substrate: CN(C)c1ccc(N=Nc2ccc(S(=O)(=O)N[C@@H](CC[S@@+](C)[O-])C(=O)O)cc2)cc1; experiment: HPLC of dabsyl-Met, Lineweaver-Burk; assay type: biochemical, Mus musculus; conditions: 20 mM DTT, 50 mM sodium phosphate pH 7.5, 50 mM NaCl, 37 °C
Description: HPLC of dabsyl-Met, Lineweaver-Burk on MsrB1 (Sec-containing MsrB1; Cys form MsrB1-Cys)

[2] = substrate: CN(C)c1ccc(N=Nc2ccc(S(=O)(=O)N[C@@H](CC[S@@+](C)[O-])C(=O)O)cc2)cc1; experiment: HPLC of dabsyl-Met, Lineweaver-Burk; assay type: biochemical, Homo sapiens; conditions: 20 mM DTT, 50 mM sodium phosphate pH 7.5, 50 mM NaCl, 37 °C, from E. coli
Description: HPLC of dabsyl-Met, Lineweaver-Burk on MsrB3

Protein	Km ([1]; Sec form from NIH 3T3)	kcat ([1]; Sec form from NIH 3T3)	Km ([2]; MsrB1 numbering)	kcat ([2]; MsrB1 numbering)	also measured
B1	500 ± 100 µM	0.223 ± 0.0383 s⁻¹	–	–	–
B2	800 ± 50 µM	0.0433 ± 0.013 s⁻¹	–	–	–
B3	–	–	–	–	Km ([1]; MsrB1-Cys from E. coli): 1300 ± 200 µM; kcat ([1]; MsrB1-Cys from E. coli): 0.00183 ± 0.0005 s⁻¹
B4	–	–	–	–	Km ([1]; MsrB1-Cys from E. coli): 13200 ± 2400 µM; kcat ([1]; MsrB1-Cys from E. coli): 0.023 ± 0.005 s⁻¹
B5	4300 ± 1600 µM	0.01 ± 0.0033 s⁻¹	–	–	–
B6	6400 ± 2100 µM	0.04 ± 0.0083 s⁻¹	–	–	–
B7	–	–	1000 ± 200 µM	0.0283 ± 0.005 s⁻¹	–
B8	–	–	200 ± 50 µM	0.07 ± 0.0083 s⁻¹	–
B9	–	–	–	–	Km [2]: 800 ± 50 µM; kcat [2]: 0.827 ± 0.07 s⁻¹
B10	–	–	1200 ± 100 µM	0.00033 ± 0.00017 s⁻¹	–
